From patent publication US20250312499A1, “KISSPEPTIN RECEPTOR (KISS1R) TARGETED THERAPEUTICS AND USES THEREOF” (priority 2024, published 2025)
Values belong to the binder of their own block, whether it stands above or below them. Numbered stars: 1 amine (or outer) side, 2 acyl side, 3 side chain; on linkers, the order of the positions; unused ones are H or OH. Square brackets hold non-standard residues; d marks the D form. Ends that are not written are not given here. * marks the point of attachment. X2 = 4‑amino‑1‑((3-fluoro-4-methylbenzyl)glycyl)piperidine‑4‑carboxylic acid, Cc1ccc(CN(CC(=O)N2CCC(N[*:1])(C(=O)[*:2])CC2)[*:3])cc1F; DOTA = O=C(O)CN1CCN(CC(=O)O)CCN(CC(=O)*)CCN(CC(=O)O)CC1; Api(1-amidino) = N=C(N)N1CCC(N)(C(=O)O)CC1; d(γGlu) = O=C(O)[C@@H](CCC(=O)[*:2])N[*:1]; Phe(3-F) = N[C@@H](Cc1cccc(F)c1)C(=O)O; εLys = N[C@@H](CCCCN[*:1])C(=O)[*:2]; Adipoyl = O=C(CCCCC(=O)[*:2])[*:1]; 4Pal = N[C@@H](Cc1ccncc1)C(=O)O; d4Pal = N[C@H](Cc1ccncc1)C(=O)O; 4Amb = NCc1ccc(C(=O)O)cc1; Octanoyl = CCCCCCCC(=O)*; APM = not defined here; Ahx = NCCCCCC(=O)O; azaGly = NNC(=O)O

Target: human kisspeptin receptor (KISS1R) (human), Q969F8
Sequence (Q969F8 whole entry): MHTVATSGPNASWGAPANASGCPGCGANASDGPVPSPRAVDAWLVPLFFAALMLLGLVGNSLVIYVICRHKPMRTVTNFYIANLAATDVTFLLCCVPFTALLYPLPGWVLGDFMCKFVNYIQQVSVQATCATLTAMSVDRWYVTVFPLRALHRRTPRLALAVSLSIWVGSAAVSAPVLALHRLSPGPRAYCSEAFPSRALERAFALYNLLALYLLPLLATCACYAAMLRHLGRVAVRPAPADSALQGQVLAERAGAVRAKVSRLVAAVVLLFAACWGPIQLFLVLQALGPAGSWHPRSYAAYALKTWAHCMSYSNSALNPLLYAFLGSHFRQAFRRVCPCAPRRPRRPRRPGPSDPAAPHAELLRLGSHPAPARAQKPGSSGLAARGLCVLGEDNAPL
Experiment: radioligand competition, hKISS1R membranes; legend: A is <10 nM

B12: Compound 181 (peptide)
peptide: Octanoyl-[dY]K(DOTA)NTF[azaGly]L[X2]W-NH2
SMILES: CCCCCCCC(=O)N[C@H](Cc1ccc(O)cc1)C(=O)N[C@@H](CCCCNC(=O)CN1CCN(CC(=O)O)CCN(CC(=O)O)CCN(CC(=O)O)CC1)C(=O)N[C@@H](CC(N)=O)C(=O)N[C@H](C(=O)N[C@@H](Cc1ccccc1)C(=O)NNC(=O)N[C@@H](CC(C)C)C(=O)NC1(C(=O)N[C@@H](Cc2c[nH]c3ccccc23)C(N)=O)CCN(C(=O)CNCc2ccc(C)c(F)c2)CC1)[C@@H](C)O
- Ki: < 10 nM

B13: Compound 168 (peptide)
peptide: {DOTA-4Amb-Met-Trp-εLys-Adipoyl}-NTF[azaGly]L[X2]W-NH2
- Ki: < 10 nM

B14: Compound 169 (peptide)
peptide: {DOTA-Ahx}-NT[Phe(3-F)][azaGly]L[X2][4Pal]-NH2
SMILES: Cc1ccc(CNCC(=O)N2CCC(NC(=O)[C@H](CC(C)C)NC(=O)NNC(=O)[C@H](Cc3cccc(F)c3)NC(=O)[C@@H](NC(=O)[C@H](CC(N)=O)NC(=O)CCCCCNC(=O)CN3CCN(CC(=O)O)CCN(CC(=O)O)CCN(CC(=O)O)CC3)[C@@H](C)O)(C(=O)N[C@@H](Cc3ccncc3)C(N)=O)CC2)cc1F
- Ki: < 10 nM

B15: Compound 203 (peptide)
peptide: F[azaGly]L[X2]W-NH2
modifications: not fully specified (N-terminus)
- Ki: < 10 nM

B16: Compound 6 (peptide)
peptide: {DOTA-Ahx}-[dY][dW]NTF[azaGly]L[Api(1-amidino)]W-NH2
SMILES: CC(C)C[C@H](NC(=O)NNC(=O)[C@H](Cc1ccccc1)NC(=O)[C@@H](NC(=O)[C@H](CC(N)=O)NC(=O)[C@@H](Cc1c[nH]c2ccccc12)NC(=O)[C@@H](Cc1ccc(O)cc1)NC(=O)CCCCCNC(=O)CN1CCN(CC(=O)O)CCN(CC(=O)O)CCN(CC(=O)O)CC1)[C@@H](C)O)C(=O)NC1(C(=O)N[C@@H](Cc2c[nH]c3ccccc23)C(N)=O)CCN(C(=N)N)CC1
- Ki: < 10 nM

B17: Compound 164 (peptide)
peptide: {DOTA-2‑(4-aminopiperidin-1-yl)acetyl}-KNT[Phe(3-F)][azaGly]L[X2]W-NH2
- Ki: < 10 nM

B18: Compound 197 (peptide)
peptide: {3‑(2-(2-methoxyethoxy)ethoxy)propanoic acid}-[dY]K(DOTA)NTF[azaGly]L[Api(1-amidino)]W-NH2
- Ki: < 10 nM

B19: Compound 192 (peptide)
peptide: {DOTA-trans‑4‑(aminomethyl)cyclohexane‑1‑carboxylic acid}-F[azaGly]L[X2]W-NH2
- Ki: < 10 nM

B20: Compound 149 (peptide)
peptide: {DOTA-4Amb}-GY[Ahx][dY][dW]NTF[azaGly]L[X2]W-NH2
SMILES: Cc1ccc(CNCC(=O)N2CCC(NC(=O)[C@H](CC(C)C)NC(=O)NNC(=O)[C@H](Cc3ccccc3)NC(=O)[C@@H](NC(=O)[C@H](CC(N)=O)NC(=O)[C@@H](Cc3c[nH]c4ccccc34)NC(=O)[C@@H](Cc3ccc(O)cc3)NC(=O)CCCCCNC(=O)[C@H](Cc3ccc(O)cc3)NC(=O)CNC(=O)c3ccc(CNC(=O)CN4CCN(CC(=O)O)CCN(CC(=O)O)CCN(CC(=O)O)CC4)cc3)[C@@H](C)O)(C(=O)N[C@@H](Cc3c[nH]c4ccccc34)C(N)=O)CC2)cc1F
- Ki: < 10 nM

B21: Compound 170 (peptide)
peptide: {2,2',2''‑(10-(2-((((1s,4s)-4-carboxycyclohexyl)methyl)amino)-2-oxoethyl)-1,4,7,10-tetraazacyclododecane-1,4,7-triyl)triacetic acid}-ENT[Phe(3-F)][azaGly]L[X2][4Pal]-NH2
- Ki: < 10 nM

Second part, the binder after the results:

- Ki: < 10 nM
B1: Compound 158 (peptide)
peptide: {DOTA-APM}-NTF[azaGly]L[X2]W-NH2
modifications: reading uncertain

- Ki: < 10 nM
B2: Compound 156 (peptide)
peptide: {DOTA}-[d(γGlu)]F[azaGly]L[X2]W-NH2
SMILES: Cc1ccc(CNCC(=O)N2CCC(NC(=O)[C@H](CC(C)C)NC(=O)NNC(=O)[C@H](Cc3ccccc3)NC(=O)CC[C@@H](NC(=O)CN3CCN(CC(=O)O)CCN(CC(=O)O)CCN(CC(=O)O)CC3)C(=O)O)(C(=O)N[C@@H](Cc3c[nH]c4ccccc34)C(N)=O)CC2)cc1F

- Ki: < 10 nM
B3: Compound 151 (peptide)
peptide: {DOTA}-GY[dW]NTF[azaGly]L[X2]W-NH2
SMILES: Cc1ccc(CNCC(=O)N2CCC(NC(=O)[C@H](CC(C)C)NC(=O)NNC(=O)[C@H](Cc3ccccc3)NC(=O)[C@@H](NC(=O)[C@H](CC(N)=O)NC(=O)[C@@H](Cc3c[nH]c4ccccc34)NC(=O)[C@H](Cc3ccc(O)cc3)NC(=O)CNC(=O)CN3CCN(CC(=O)O)CCN(CC(=O)O)CCN(CC(=O)O)CC3)[C@@H](C)O)(C(=O)N[C@@H](Cc3c[nH]c4ccccc34)C(N)=O)CC2)cc1F

- Ki: < 10 nM
B4: Compound 159 (peptide)
peptide: {DOTA-APM}-ENT[Phe(3-F)][azaGly]L[X2]W-NH2
modifications: reading uncertain

- Ki: < 10 nM
B5: Compound 195 (peptide)
peptide: {3‑(2-(2-(3-(p-tolyl)propanamido)ethoxy)ethoxy)propanoic acid}-[dY]K(DOTA)NTF[azaGly]L[Api(1-amidino)]W-NH2

- Ki: < 10 nM
B6: Compound 193 (peptide)
peptide: {DOTA}-G[dY][d4Pal]NTF[azaGly]L[X2]Y-NH2
SMILES: Cc1ccc(CNCC(=O)N2CCC(NC(=O)[C@H](CC(C)C)NC(=O)NNC(=O)[C@H](Cc3ccccc3)NC(=O)[C@@H](NC(=O)[C@H](CC(N)=O)NC(=O)[C@@H](Cc3ccncc3)NC(=O)[C@@H](Cc3ccc(O)cc3)NC(=O)CNC(=O)CN3CCN(CC(=O)O)CCN(CC(=O)O)CCN(CC(=O)O)CC3)[C@@H](C)O)(C(=O)N[C@@H](Cc3ccc(O)cc3)C(N)=O)CC2)cc1F

- Ki: < 10 nM
B7: Compound 196 (peptide)
peptide: {3‑(2-(2-(3-(4-iodophenyl)propanamido)ethoxy)ethoxy)propanoic acid}-[dY]K(DOTA)NTF[azaGly]L[Api(1-amidino)]W-NH2

- Ki: < 10 nM
B8: Compound 182 (peptide)
peptide: {Me‑PEG25‑C(:O)}-[dY]K(DOTA)NTF[azaGly]L[Api(1-amidino)]W-NH2

- Ki: < 10 nM
B9: Compound 167 (peptide)
peptide: NTF[azaGly]L[X2]W-NH2
modifications: not fully specified (N-terminus)

- Ki: < 10 nM
B10: Compound 160 (peptide)
peptide: {DOTA-(1r,4r)‑4‑(aminomethyl)cyclohexane‑1‑carbonyl}-ENT[Phe(3-F)][azaGly]L[X2]W-NH2

- Ki: < 10 nM
B11: Compound 161 (peptide)
peptide: {DOTA-(1r,4r)‑4‑(aminomethyl)cyclohexane‑1‑carbonyl}-[dE]NT[Phe(3-F)][azaGly]L[X2]W-NH2
